Measured values taken from patent publication US12036234B2, “Heparin conjugated to collagen-binding peptides for targeting to biological and synthetic tissues” (Northwestern University, priority 2017, dated 2024).
Ends that are not written are not given here.

Molecular target: collagen IV (Mus musculus, UniProt P02463+P08122)
Test: Cy5 conjugate binding to surface coated collagen IV
Settings: 30 mg/ml, improved batch, 24 hour incubation
Method: Heparin(Cy5)-CBP conjugates were synthesized using N-(3-dimethylaminopropyl)-N′-ethylcarbodiimide/N-hydroxyl succinimide (EDC/NHS) chemistry (1,2). Briefly, 1 mM of heparin sodium salt or fluorescently pre-conjugated Heparin(Cyanine5) (Hep-Cy5) mixed with 120 mM EDC and 60 mM NHS in 2-(N-morpholino) ethanesulfonic acid (MES) buffer at pH 6.5. This was rocked for 4 hours at 20° C. 1 mM of […] binding peptide (CQDSETRTFY (SEQ ID NO:1), CBP) or a scrambled sequence (CDEFQRSTTY (SEQ ID NO:2), CBPi) was added, and allowed to rock overnight at 4° C. This mixture was dialyzed to exclude molecules […] 3.5 kDa and lyophilized to dry. Four molecular assays were used to assess the functional synthesis of these conjugates. An Ellman's assay is capable of colormetrically labeling the thiol containing cysteine amino acid, and was used to assess the cysteine molar quantity of the whole conjugate (3). A dimethylmethylene blue assay was used to stain the glycosaminoglycan present in heparin conjugates to determine the heparin molar quantity (4). A colormetric kit was used to assess clotting via factor Xa (5). Effective CBP related binding of the conjugate was measured via the Cy5 fluorophore, using a 24 hour incubation with surface coated collagen IV (6). […]

Chain of collagen IV (P02463 173-1669): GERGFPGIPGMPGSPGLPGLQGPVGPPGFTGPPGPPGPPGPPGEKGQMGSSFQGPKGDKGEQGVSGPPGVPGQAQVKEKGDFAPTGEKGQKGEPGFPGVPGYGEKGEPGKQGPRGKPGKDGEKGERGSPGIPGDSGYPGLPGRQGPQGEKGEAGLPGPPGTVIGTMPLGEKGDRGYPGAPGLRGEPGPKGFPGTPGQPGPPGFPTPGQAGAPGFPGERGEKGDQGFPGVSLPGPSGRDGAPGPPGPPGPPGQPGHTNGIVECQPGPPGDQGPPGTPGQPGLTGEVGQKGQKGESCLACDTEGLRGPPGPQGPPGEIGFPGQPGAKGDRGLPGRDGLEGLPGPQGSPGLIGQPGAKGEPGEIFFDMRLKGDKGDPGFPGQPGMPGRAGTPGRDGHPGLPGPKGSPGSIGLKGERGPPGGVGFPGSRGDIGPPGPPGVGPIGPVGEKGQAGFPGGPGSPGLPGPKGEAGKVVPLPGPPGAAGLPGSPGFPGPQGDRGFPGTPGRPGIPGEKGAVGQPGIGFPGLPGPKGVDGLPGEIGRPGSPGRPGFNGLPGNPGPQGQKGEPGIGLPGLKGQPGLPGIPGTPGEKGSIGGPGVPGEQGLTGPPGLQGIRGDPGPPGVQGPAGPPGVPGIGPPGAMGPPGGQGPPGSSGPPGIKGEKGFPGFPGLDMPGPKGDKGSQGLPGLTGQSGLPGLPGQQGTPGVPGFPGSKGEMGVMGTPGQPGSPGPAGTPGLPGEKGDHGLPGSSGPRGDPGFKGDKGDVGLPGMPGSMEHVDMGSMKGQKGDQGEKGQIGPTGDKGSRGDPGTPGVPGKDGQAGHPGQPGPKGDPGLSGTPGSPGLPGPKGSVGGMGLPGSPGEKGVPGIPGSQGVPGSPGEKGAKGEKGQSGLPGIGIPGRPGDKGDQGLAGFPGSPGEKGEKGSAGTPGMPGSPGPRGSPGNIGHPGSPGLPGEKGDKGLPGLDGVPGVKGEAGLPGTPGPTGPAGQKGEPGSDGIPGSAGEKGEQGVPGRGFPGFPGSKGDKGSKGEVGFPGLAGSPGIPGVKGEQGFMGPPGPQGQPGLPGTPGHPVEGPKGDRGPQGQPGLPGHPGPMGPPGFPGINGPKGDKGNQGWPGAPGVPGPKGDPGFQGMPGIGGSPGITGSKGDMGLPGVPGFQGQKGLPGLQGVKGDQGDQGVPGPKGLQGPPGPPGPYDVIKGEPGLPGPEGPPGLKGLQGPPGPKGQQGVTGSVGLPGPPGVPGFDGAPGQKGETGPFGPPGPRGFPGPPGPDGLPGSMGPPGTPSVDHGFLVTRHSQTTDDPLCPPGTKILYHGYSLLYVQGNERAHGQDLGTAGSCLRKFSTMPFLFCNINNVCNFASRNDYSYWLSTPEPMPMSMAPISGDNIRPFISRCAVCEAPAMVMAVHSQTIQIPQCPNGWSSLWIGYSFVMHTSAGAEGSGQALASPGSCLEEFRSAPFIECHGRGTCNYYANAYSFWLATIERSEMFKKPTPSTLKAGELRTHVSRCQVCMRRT
Chain of collagen IV (P08122 184-1707): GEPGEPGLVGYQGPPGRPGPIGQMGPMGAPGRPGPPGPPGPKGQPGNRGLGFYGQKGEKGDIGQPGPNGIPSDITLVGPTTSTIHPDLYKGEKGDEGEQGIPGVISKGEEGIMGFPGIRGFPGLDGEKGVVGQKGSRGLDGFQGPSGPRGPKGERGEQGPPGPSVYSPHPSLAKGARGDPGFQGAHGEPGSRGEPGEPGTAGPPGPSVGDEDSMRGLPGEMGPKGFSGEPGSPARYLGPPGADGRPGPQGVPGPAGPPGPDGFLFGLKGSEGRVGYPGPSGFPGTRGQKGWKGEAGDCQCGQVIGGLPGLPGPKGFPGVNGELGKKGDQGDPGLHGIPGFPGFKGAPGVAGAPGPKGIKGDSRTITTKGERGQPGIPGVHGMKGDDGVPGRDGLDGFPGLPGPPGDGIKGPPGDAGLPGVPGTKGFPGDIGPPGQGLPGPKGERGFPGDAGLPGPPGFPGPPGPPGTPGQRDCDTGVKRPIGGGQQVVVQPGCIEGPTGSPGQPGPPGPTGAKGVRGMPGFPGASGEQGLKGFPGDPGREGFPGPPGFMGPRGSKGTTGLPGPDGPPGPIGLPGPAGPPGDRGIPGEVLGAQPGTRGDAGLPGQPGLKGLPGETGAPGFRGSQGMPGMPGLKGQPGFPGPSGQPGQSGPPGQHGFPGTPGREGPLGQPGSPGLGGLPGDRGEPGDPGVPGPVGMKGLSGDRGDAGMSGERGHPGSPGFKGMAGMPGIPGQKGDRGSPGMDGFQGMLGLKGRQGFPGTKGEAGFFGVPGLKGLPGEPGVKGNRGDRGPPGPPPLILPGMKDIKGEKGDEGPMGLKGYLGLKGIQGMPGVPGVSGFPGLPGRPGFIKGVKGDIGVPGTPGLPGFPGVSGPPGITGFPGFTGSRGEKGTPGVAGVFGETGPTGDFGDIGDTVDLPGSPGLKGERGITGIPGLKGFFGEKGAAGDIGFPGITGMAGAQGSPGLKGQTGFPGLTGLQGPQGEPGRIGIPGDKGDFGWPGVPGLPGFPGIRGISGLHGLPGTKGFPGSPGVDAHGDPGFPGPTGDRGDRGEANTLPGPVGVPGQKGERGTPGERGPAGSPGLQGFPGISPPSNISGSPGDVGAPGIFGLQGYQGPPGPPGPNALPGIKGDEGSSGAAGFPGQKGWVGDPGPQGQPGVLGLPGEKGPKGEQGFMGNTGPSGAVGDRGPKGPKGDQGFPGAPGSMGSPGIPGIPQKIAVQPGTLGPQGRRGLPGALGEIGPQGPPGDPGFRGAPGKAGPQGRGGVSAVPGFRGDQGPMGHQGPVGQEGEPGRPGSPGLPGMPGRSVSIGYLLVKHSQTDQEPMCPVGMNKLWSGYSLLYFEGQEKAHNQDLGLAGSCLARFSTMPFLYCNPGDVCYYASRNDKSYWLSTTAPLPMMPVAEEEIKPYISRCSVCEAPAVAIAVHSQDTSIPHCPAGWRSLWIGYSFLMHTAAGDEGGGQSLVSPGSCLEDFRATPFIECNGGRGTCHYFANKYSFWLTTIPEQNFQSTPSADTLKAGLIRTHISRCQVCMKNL

binding to collagen IV relative to scrambled CBPi control: four times more
Substance: CBP-Hep(Cy5): Cy5-labelled heparin conjugated with CBP by EDC/NHS chemistry (CQDSETRTFY; also: conjugated to Cy5-labelled heparin by EDC/NHS, place not given here)
